How the values were obtained:
[1] = target: intact ZIKV particles (ZIKV envelope protein) (Zika virus); assay: direct ELISA on coated intact ZIKV particles (10-fold dilutions), antibody 1 ug/ml, anti-mouse IgG-HRP; FPLR fit
[2] = target: intact ZIKV particles (ZIKV envelope protein) (Zika virus); assay: direct ELISA on coated intact ZIKV particles (10-fold dilutions), antibody 1 ug/ml, anti-mouse IgG-HRP; LOD = blank + 3 SD
[3] = target: intact ZIKV particles (ZIKV envelope protein) (Zika virus); assay: direct ELISA on coated intact ZIKV particles (10-fold dilutions), biotinylated peptide 2 uM, streptavidin-HRP; FPLR fit
[4] = target: intact ZIKV particles (ZIKV envelope protein) (Zika virus); assay: direct ELISA on coated intact ZIKV particles (10-fold dilutions), biotinylated peptide 2 uM, streptavidin-HRP; LOD = blank + 3 SD
[5] = target: intact ZIKV particles (ZIKV envelope protein) (Zika virus); assay: direct ELISA on coated intact ZIKV particles (10-fold dilutions), biotinylated peptide 0.5 uM, streptavidin-HRP; LOD = blank + 3 SD
[6] = target: intact DENV-3 particles (Dengue virus serotype 3); assay: direct ELISA, plates coated with 10^5 copies/mL of intact virus particles
[7] = target: intact DENV-2 particles (Dengue virus serotype 2); assay: as above
[8] = target: intact DENV-1 particles (Dengue virus serotype 1); assay: as above
[9] = target: intact ZIKV particles (ZIKV envelope protein) (Zika virus); assay: direct ELISA on coated intact ZIKV particles (10-fold dilutions), biotinylated peptide 0.5 uM, streptavidin-HRP; FPLR fit
[10] = target: intact ZIKV particles (ZIKV envelope protein) (Zika virus); assay: direct ELISA on coated intact ZIKV particles (10-fold dilutions), biotinylated peptide 20 uM, streptavidin-HRP; LOD = blank + 3 SD
[11] = target: intact ZIKV particles (ZIKV envelope protein) (Zika virus); assay: direct ELISA on coated intact ZIKV particles, mono-arm peptide 20 uM in urine (1:1) or serum (1:10); data not shown
[12] = target: intact ZIKV particles (ZIKV envelope protein) (Zika virus); assay: direct ELISA on coated intact ZIKV particles (10-fold dilutions), biotinylated peptide 20 uM, streptavidin-HRP; FPLR fit
[13] = target: intact ZIKV particles (ZIKV envelope protein) (Zika virus); assay: direct ELISA on coated intact ZIKV particles (10-fold dilutions), biotinylated peptide 5 uM, streptavidin-HRP; LOD = blank + 3 SD
[14] = target: intact ZIKV particles (ZIKV envelope protein) (Zika virus); assay: direct ELISA on coated intact ZIKV particles (10-fold dilutions), biotinylated peptide 5 uM, streptavidin-HRP; FPLR fit

Molecule: antibody 4G2 hybridoma mouse IgG2a
- FPLR C50 (log[ZIKV], copies/mL) [1]: 6.2
- FPLR minimum [1]: 0.04 ΔA
- LOD (log[ZIKV], copies/mL) [2]: 5.8

B1: clamp peptide C1 (designed binder)
peptide: WPHTQGPGCCGPGSWPGQ
modifications: maleimide-PEG2-biotin on the cysteines of the bridge (thioether)
- FPLR C50 (log[ZIKV], copies/mL) [3]: 6.3
- FPLR minimum [3]: 0.03 ΔA
- LOD (log[ZIKV], copies/mL) [4]: 4.8

B2: clamp peptide C3 (designed binder)
peptide: WPWIGTGPGCCGPGKRNATP
modifications: maleimide-PEG2-biotin on the cysteines of the bridge (thioether)
- LOD (log[ZIKV], copies/mL) [5]: 3.5
- signal decrease against the ZIKV signal [6]: 70%
- signal decrease against the ZIKV signal [7]: 70%
- signal decrease against the ZIKV signal [8]: 70%
- FPLR C50 (log[ZIKV], copies/mL) [9]: 5.3
- FPLR minimum [9]: 0.05 ΔA

B3: clamp peptide C2 (designed binder)
peptide: WPHTQGPGCCGPGLRGHA
modifications: maleimide-PEG2-biotin on the cysteines of the bridge (thioether)
- FPLR C50 (log[ZIKV], copies/mL) [3]: 6.2
- FPLR minimum [3]: 0.05 ΔA
- LOD (log[ZIKV], copies/mL) [4]: 4.5

B4: mono-arm peptide P1 (peptide)
peptide: CSWPGQ
modifications: maleimide-PEG2-biotin on the N-terminal cysteine
- LOD (log[ZIKV], copies/mL) [10]: 6.8

B5: clamp peptide C4 (designed binder)
peptide: WPWIGTGPGCCGPGKTDAYS
modifications: maleimide-PEG2-biotin on the cysteines of the bridge (thioether)
- FPLR C50 (log[ZIKV], copies/mL) [3]: 6.3
- FPLR minimum [3]: 0.02 ΔA
- LOD (log[ZIKV], copies/mL) [4]: 5.7

B6: mono-arm peptide X1 (peptide)
peptide: CKRNATP
modifications: maleimide-PEG2-biotin on the N-terminal cysteine
- LOD (log[ZIKV], copies/mL) [10]: 4.8
- lowest ZIKV concentration detected in urine or serum [11]: 1e+07 copies/mL
- FPLR C50 (log[ZIKV], copies/mL) [12]: 6.1
- FPLR minimum [12]: 0.03 ΔA

B7: mono-arm peptide P2 (peptide)
peptide: CLRGHA
modifications: maleimide-PEG2-biotin on the N-terminal cysteine
- LOD (log[ZIKV], copies/mL) [10]: 4.5
- lowest ZIKV concentration detected in urine or serum [11]: 1e+06 copies/mL
- FPLR C50 (log[ZIKV], copies/mL) [12]: 6.2
- FPLR minimum [12]: 0.04 ΔA

B8: clamp peptide C8 (designed binder)
peptide: MDSPIKGPGCCGPGKTDAYS
modifications: maleimide-PEG2-biotin on the cysteines of the bridge (thioether)
- LOD (log[ZIKV], copies/mL) [13]: 4.7
- FPLR C50 (log[ZIKV], copies/mL) [14]: 6.2
- FPLR minimum [14]: 0.03 ΔA

B9: clamp peptide C7 (designed binder)
peptide: MDSPIKGPGCCGPGKRNATP
modifications: maleimide-PEG2-biotin on the cysteines of the bridge (thioether)
- LOD (log[ZIKV], copies/mL) [13]: 3.7
- FPLR C50 (log[ZIKV], copies/mL) [14]: 5.8
- FPLR minimum [14]: 0.01 ΔA
- signal decrease against the ZIKV signal [6]: 70%
- signal decrease against the ZIKV signal [7]: 70%
- signal decrease against the ZIKV signal [8]: 70%

B10: mono-arm peptide X2 (peptide)
peptide: CKTDAYS
modifications: maleimide-PEG2-biotin on the N-terminal cysteine
- LOD (log[ZIKV], copies/mL) [10]: 5.8
- FPLR C50 (log[ZIKV], copies/mL) [12]: 6.1
- FPLR minimum [12]: 0.01 ΔA

B11: clamp peptide C5 (designed binder)
peptide: AGRRPGPGCCGPGSWPGQ
modifications: maleimide-PEG2-biotin on the cysteines of the bridge (thioether)
- LOD (log[ZIKV], copies/mL) [13]: 5.8
- FPLR C50 (log[ZIKV], copies/mL) [14]: 6.4
- FPLR minimum [14]: 0.01 ΔA

B12: clamp peptide C6 (designed binder)
peptide: AGRRPGPGCCGPGLRGHA
modifications: maleimide-PEG2-biotin on the cysteines of the bridge (thioether)
- LOD (log[ZIKV], copies/mL) [5]: 3.5
- signal decrease against the ZIKV signal [6]: 55%
- signal decrease against the ZIKV signal [7]: 45%
- FPLR C50 (log[ZIKV], copies/mL) [9]: 5.2
- FPLR minimum [9]: 0.05 ΔA

Source: patent US20190385705A1
